In publication PMC10749193 (Frontiers in Immunology, 2023):

Target: SARS-CoV-2 S2 subunit ectodomain (S2-ECD, 686–1213 aa) (SARS-CoV-2 Wuhan, UniProt P0DTC2)
Assay: ELISA
Conditions: both partners purified

B1: anti-S2 monoclonal antibody 4A5 (antibody, V domains shown)
VH: QVKLEQSGPGILQPSQTLSLTCSFSGFSLSTSGMGVSWIRQSSGKGLEWLTHIYWDDDKRYNPSLKSRLTISKDTSRNQVFLKITSVDTADTATYYCARRRMITGLYYAMDYWGQGTSVTVSS
VL: DIVMTQSTLSLPVSFGDQVSISCRSSQSLANSYGITYLSWYLHKPGQSPQLLIYGISNRFSGVPDRFSGSGSGTDFTLKISTIKPEDLGMYYCLQGTHQPWTFGGGTKLEIK
binding result: binds
